The text below walks through data of patent US20240263208A1, “CYTOCHROME P450 ENZYME” (HYPHA DISCOVERY LTD., priority 2021, published 2024).

First the molecules themselves.
B1: SeuC10M25: P450SeuC10 with T109F mutation, SEQ ID NO: 54 (protein)
chain: MKIGTTHLTRLRGLSMTELTDITGPAAQAETVAFPQDRTCPYHPPTGYDPLRDGRPLSRVTLYDGREVWLVTAQATARALLADPRLSTDRRRDGFPVPTPRFAAGRDRFLALLGLDDPEHHRQRRLLIPSFTLKRATAQRPWIQRIVDELLDAMIARGPVADLVSAFALPVPSMVICELLGVPYADHEFFEEQSRRLLRGPTGADTTDARDRLEAYLGDLIDAKAKEAEPGDGILDDLVHNRLRAGELDRSVLVSLAVILLVAGHETTANMISLGTYTLLQHPERLAELRADPSLLPAVVEELLRMLSIAEGLQRLALEDIEIDGITIRAGEGVLFSTSVINRDTAVYEDPDDLDFHRADRHHVAFGFGIHQCLGQNLARAELEIALGSLFTRLPGLRLAAPAEEIPFKPGDTVQGMLELPVTW
modifications: SeuC10M25
B2: SeuC10M20: P450SeuC10 with L198W mutation, SEQ ID NO: 44 (protein)
chain: B1 chain with F109T, L198W
modifications: SeuC10M20
B3: SeuC10M13: P450SeuC10 with L198F mutation, SEQ ID NO: 30 (protein)
chain: B1 chain with F109T, L198F
modifications: SeuC10M13
B4: SeuC10M9: P450SeuC10 with L198A mutation, SEQ ID NO: 22 (protein)
chain: B1 chain with F109T, L198A
modifications: SeuC10M9

Residue numbers refer to the chain shown, from its start. Names may count otherwise.

One data set is described as follows: Oxidase activity testing against 7-ethoxycoumarin. It is filed as biochemical. The conditions noted are these: substrate 7-ethoxycoumarin; Batch 1. The procedure, abridged:
(§1)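 Reconstituted recombinant P450 with ferredoxin and ferredoxin reductase was incubated with 0.1 mg/ml substrate in 100 mM potassium phosphate pH 8.0, 5 mM MgCl2 at 27° C with shaking. Reactions were started with a G6P/NADP+/G6PDH cofactor mix, run 16-20 hours, acetonitrile-quenched, and % conversion measured by UPLC-MS.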
Molecule B1 registered an Average % conversion of 17.5%.
Consider B2, for which the Average % conversion is reported as 11.4%.
Regarding B3, the Average % conversion worked out at 31.2%.
Consider B4, for which the Average % conversion was determined as 10.7%.

The next data set can be described thus: Oxidase activity testing against celecoxib. The conditions noted are these: substrate Celecoxib; Batch 1. It is filed as biochemical. The essentials: as §1
The molecule B1 returned an Average % conversion of 10.4%.
The same measure, in the same setting: with B2 the figure was 6.9%.
Same read-out and setting: with B3 the figure was 26.8%; with B4, 2.6%.

A further data set can be described thus: Oxidase activity testing against valsartan. The format is biochemical. Particulars: substrate Valsartan; Batch 1. The procedure, abridged:
as §1
B1 gave an Average % conversion of 15.5%.
B2 registered an Average % conversion of 25%.
On the same count and under the same terms, the result for B3 reads 12%; that for B4, 6.9%.

A further data set can be described thus: Oxidase activity testing against carbamazepine. The format is biochemical. The conditions noted are these: 2-hydroxycarbamazepine, relative MS peak area. The method, then: (§2) Lyophilised material of recombinant P450, ferredoxin and ferredoxin reductase proteins was made as described in Example 4 and reconstituted in high purity water to the original volume. Biocatalysis was performed with shaking incubation at 27° C. in the following conditions: 100 mM potassium phosphate pH 8.0, 5 mM MgCl2 (both present in the reconstituted enzyme preparation) and 0.1 mg/ml substrate compound such as ambroxide (Sigma-Aldrich, UK), carbamazepine (Sigma-Aldrich, UK), diclofenac (Sigma-Aldrich, UK), tivantinib (MedChemtronica, Sweden), clarithromycin (Tokyo Chemical Industry, Japan), sclareol (Sigma-Aldrich, UK), celecoxib (LC Laboratories, USA), buparvaquone (Sigma-Aldrich, UK), BIRB796 (MedChemExpress, USA), vanoxerine (CiVentiChem, USA), valsartan (Tokyo Chemical Industry, Japan), ruxolitinib (LC Laboratories, USA), perindopril (Selleckchem, USA), solifenacin (Key Organics, UK), 7-ethoxycoumarin (Tokyo Chemical Industry, Japan), tofacitinib (LC Laboratories, USA), ebastine (Key Organics, UK), efavirenz (Key Organics, UK), propanalol (Sigma-Aldrich, UK) and tolbutamide (Key Organics, UK).
(§3) Concentrations of P450, ferredoxin and ferredoxin reductase were as extracted (Example 4). Reactions were initiated by addition of 10× stock of cofactor mixture (50 mM G6P, 10 mM NADP+, 10 UN/ml G6PDH) to provide a final volume of e.g., 10 μl to 90 μl for 100 μl total reaction volumes. After 16-20 hours, reactions were extracted with an equal volume of acetonitrile, centrifuged to remove precipitated proteins and conversion assessed by UPLC-MS analysis.
(§4) UPLC Data were Obtained as Follows: • Column: Acquity UPLC BEH Shield RP18 1.7 μm 2.1 mm i.d. 50 mm length • Solvents: H2O, B: Acetonitrile, both with 0.1% Formic acid • Flow rate: 1.0 ml/min • Detector: Waters Acquity UPLC PDA (UV-Vis detection) and Waters Acquity UPLC QDA (MS)
(§5) To confirm the identities of reaction products where known, their chromatographic retention time, mass and ultraviolet spectra were compared with those of authentic metabolite standards.
Representative results for the % conversions of carbamazepine to oxidised (+16 Da) products for single point mutants at position L198 are shown in Table 3 below.
Take B2: the “+16 Da (1.18 min) 253 m/z” value was found to be 3.5%.
Consider B3, for which the “+16 Da (1.18 min) 253 m/z” value is listed as 3.1%.
Same read-out and setting: with B4 the figure was 1.1%.

The data set is the same for the next values; noted with them: carbamazepine epoxide, relative MS peak area.
For the molecule B2, the “+16 Da (1.14 min) 253 m/z” value is listed as 6.8%.
As for B3, the “+16 Da (1.14 min) 253 m/z” value is given as 42.3%.
Take B4: the “+16 Da (1.14 min) 253 m/z” value was determined as 15.8%.

The data set is the same for the next values; noted with them: new product at 1.18 minutes identified as 2-hydroxycarbamazepine; epoxide at 1.14 minutes.
Turning to B2, the “reaction products from carbamazepine (in words)” value was “produce a new product”.
Still for that read-out and setting: the result for B3 reads “produce a new product”; that for B4, “produce a new product”.

The same data set, now with this note: remaining carbamazepine, relative MS peak area; 0.1 mg/ml, 27° C., 16-20 hours.
Take B2: the “Parent (1.31 min) 237 m/z” value is 89.7%.
The same measure, in the same setting: the result for B3 reads 54.6%; that for B4, 83.1%.

The same data set, now with this note: substrate carbamazepine, relative MS peak areas.
For the molecule B2, the Average % conversion is listed as 10.3%.
Same read-out and setting: with B3 the figure was 45.4%.
Molecule B4 displayed an Average % conversion of 16.9%.

Another data set in a line: Oxidase activity testing against ruxolitinib. The conditions noted are these: substrate Ruxolitinib; Batch 1. It is filed as biochemical. The procedure, abridged: as §1
The molecule B1 came in with an Average % conversion of 79.8%.
The same measure, in the same setting: with B2 the figure was 42.7%.
On the same count and under the same terms, with B3 the figure was 98.1%; with B4, 55.1%.

A short description of the next data set: Oxidase activity testing against vanoxerine. It is filed as biochemical. Particulars: substrate Vanoxerine; Batch 1. The essentials:
as §1
On to B1, for which the Average % conversion was determined as 58%.
Same read-out and setting: with B2 the figure was 29.4%; with B3, 29.4%.
The same measure, in the same setting: with B4 the figure was 23%.

Another data set in a line: Oxidase activity testing against perindopril. It is filed as biochemical. The conditions noted are these: substrate Perindopril; Batch 1. The essentials:
as §1
In turn, B1 gave an Average % conversion of 23.5%.
Same read-out and setting: the result for B2 reads 16.5%; that for B3, 38.2%.
As for B4, the Average % conversion worked out at 15.7%.

A short description of a further data set: Oxidase activity testing against tolbutamide. It is filed as biochemical. Particulars: substrate Tolbutamide; Batch 1. The essentials: as §1
Turning to B1, the Average % conversion stood at 28.2%.
The same measure, in the same setting: the result for B2 reads 13.7%; that for B3, 27.9%; that for B4, 14.7%.

The nature of a further data set: Oxidase activity testing against buparvaquone. The format is biochemical. The conditions noted are these: substrate Buparvaquone; Batch 1. The procedure, abridged: as §1
As to B1, the Average % conversion was found to be 19.4%.
Molecule B2 displayed an Average % conversion of 1.7%.
The same measure, in the same setting: with B3 the figure was 39.1%.
On the same count and under the same terms, the result for B4 reads 1.2%.

The next data set can be described thus: Oxidase activity testing against BIRB796. The format is biochemical. Particulars: substrate BIRB796; Batch 1. The essentials: as §1
As to B1, the Average % conversion is on record as 13.9%.
In the case of B2, the Average % conversion was 45.3%.
Still for that read-out and setting: the result for B3 reads 54.6%.
In the case of B4, the Average % conversion was 10%.

The nature of the next data set: Oxidase activity testing against propanalol. It is filed as biochemical. Particulars: substrate Propanalol; Batch 1. How it is done: as §2, §3, §4
(§6) Representative results for the % conversions of various substrates to products by enzymes with mutations at position T109 or L198 and double mutants at T109 and 1129/L198 are shown in Table 4 below.
The molecule B1 came in with an Average % conversion of 0%.
In turn, B2 yielded an Average % conversion of 0%.
In turn, B3 gave an Average % conversion of 0%.
In turn, B4 came in with an Average % conversion of 0%.

A short description of the next data set: Oxidase activity testing against tofacitinib. It is filed as biochemical. Particulars: substrate Tofacitinib; Batch 1. The procedure, abridged: as §1
B1 returned an Average % conversion of 21.4%.
On the same count and under the same terms, the result for B2 reads 5.9%; that for B3, 32.2%.
B4 gave an Average % conversion of 6.2%.

The nature of another data set: Oxidase activity testing against sclareol. The format is biochemical.
Conditions: not given
The procedure, abridged:
as §1
With B4, the “conversion of sclareol compared to wild-type (in words)” value is reported as “significantly increased conversion”.

Still in this data set, the particulars now being: substrate Sclareol; Batch 1; UPLC-MS UV or MS peak areas.
For the molecule B1, the Average % conversion is on record as 55.7%.
On the same count and under the same terms, the result for B2 reads 0%; that for B3, 41.3%.
As for B4, the Average % conversion was 75.2%.

The next data set can be described thus: Oxidase activity testing against clarithromycin. It is filed as biochemical. The conditions noted are these: substrate Clarithromycin; Batch 1. How it is done: as §2, §3, §4, §6
For the molecule B1, the Average % conversion was found to be 0%.
Still for that read-out and setting: with B2 the figure was 0%.
The same measure, in the same setting: with B3 the figure was 0%; with B4, 0%.

The next data set is described as follows: Oxidase activity testing against solifenacin. Particulars: substrate Solifenacin; Batch 1. The format is biochemical. The essentials:
as §1
Turning to B1, the Average % conversion is listed as 2.9%.
On the same count and under the same terms, the result for B2 reads 0.6%; that for B3, 0.8%; that for B4, 0.8%.

A short description of the next data set: Oxidase activity testing, lyophilised recombinant P450/ferredoxin SeuF08/ferredoxin reductase SCF15A against ambroxide. The format is biochemical. Particulars: oxidised ambroxide product, relative MS peak area. How it is done: as §2, §3, §4, §5
Representative results for the % conversions of ambroxide to oxidised (+16 Da) products for single point mutants at position T109 are shown in Table 2 below.
As to B1, the “+16 Da (1.50 min) 253 m/z” value stood at 52.0%, the “+16 Da (1.60 min) 253 m/z” value was determined as 15.2% and the “+16 Da (2.04 min) 253 m/z” value is on record as 13.9%.

Staying with this data set, now noted: products at 1.50, 1.61 and 2.04 minutes.
Turning to B1, the “reaction products from ambroxide (in words)” value was “highest yields of the products at 1.61 and 2.04 minutes”.

The data set is the same for the next values; noted with them: remaining substrate, relative MS peak area; 0.1 mg/ml ambroxide, 27° C., 16-20 hours.
With B1, the “Ambroxide (2.22 min) 237 m/z” value came to 18.9%.

The data set is the same for the next values; noted with them: substrate ambroxide, relative MS peak areas.
In the case of B1, the Average % conversion is reported as 81.1%.

A further data set in a line: Oxidase activity testing against efavirenz. The format is biochemical. Particulars: substrate Efavirenz; Batch 1. The procedure, abridged: as §1
Take B1: the Average % conversion turned out to be 1.5%.
Still for that read-out and setting: the result for B2 reads 0%; that for B3, 0%.
Same read-out and setting: with B4 the figure was 3.1%.

The next data set can be described thus: Oxidase activity testing against ebastine. It is filed as biochemical.
Conditions: not given
The procedure, abridged:
as §1
As for B4, the “conversion of ebastine compared to wild-type (in words)” value is “significantly increased conversion”.

The same data set, now with this note: substrate Ebastine; Batch 1.
In the case of B1, the Average % conversion is on record as 12.7%.
B2: the Average % conversion was 19.2%.
The molecule B3 had an Average % conversion of 14.7%.
Same read-out and setting: the result for B4 reads 25.1%.
